Results from patent US20160002357A1.
Blank lines part the entries; values can stand above or below the substance they belong to.

How the values were obtained:
[1] = target: human P-cadherin, cell surface expressed (human) (UniProt P22223); assay: flow cytometry, PE-conjugated mAb, H1975_Luc cells
[2] = target: human P-cadherin, cell surface expressed (human) (UniProt P22223); assay: flow cytometry, PE-conjugated mAb, H322_Luc cells
[3] = target: human P-cadherin, cell surface expressed (human) (UniProt P22223); assay: flow cytometry, PE-conjugated mAb, SW480_Luc cells
[4] = target: human P-cadherin, cell surface expressed (human) (UniProt P22223); assay: flow cytometry, PE-conjugated mAb, SW620 cells
[5] = target: human P-cadherin, cell surface expressed (human) (UniProt P22223); assay: flow cytometry, PE-conjugated mAb, Ls174T_Luc cells
[6] = target: human P-cadherin, cell surface expressed (human) (UniProt P22223); assay: flow cytometry, PE-conjugated mAb, HT29_Luc cells
[7] = target: human P-cadherin, cell surface expressed (human) (UniProt P22223); assay: flow cytometry, PE-conjugated mAb, Ls174T cells
[8] = target: human P-cadherin, cell surface expressed (human) (UniProt P22223); assay: flow cytometry, PE-conjugated mAb, SUM149 cells
[9] = target: human P-cadherin, cell surface expressed (human) (UniProt P22223); assay: flow cytometry, PE-conjugated mAb, SUM149_Luc cells
[10] = target: human P-cadherin, cell surface expressed (human) (UniProt P22223); assay: flow cytometry, PE-conjugated mAb, H1650_Luc cells
[11] = target: human P-cadherin, cell surface expressed (human) (UniProt P22223); assay: flow cytometry, PE-conjugated mAb, SW480 cells
[12] = target: human P-cadherin, cell surface expressed (human) (UniProt P22223); assay: flow cytometry, PE-conjugated mAb, LoVo_Luc cells
[13] = target: human P-cadherin, cell surface expressed (human) (UniProt P22223); assay: flow cytometry, PE-conjugated mAb, SW620_Luc cells
[14] = target: human P-cadherin, cell surface expressed (human) (UniProt P22223); assay: flow cytometry, PE-conjugated mAb, HCT116_Luc cells
[15] = target: human P-cadherin, cell surface expressed (human) (UniProt P22223); assay: flow cytometry, PE-conjugated mAb, HCT116 cells
[16] = target: human P-cadherin, cell surface expressed (human) (UniProt P22223); assay: flow cytometry, PE-conjugated mAb, BT20_Luc cells
[17] = target: human P-cadherin, cell surface expressed (human) (UniProt P22223); assay: flow cytometry, PE-conjugated mAb, Colo205_Luc cells
[18] = target: human P-cadherin, cell surface expressed (human) (UniProt P22223); assay: quantitative flow cytometry (QuantiBRITE PE), H322_Luc cells
[19] = target: human P-cadherin, cell surface expressed (human) (UniProt P22223); assay: quantitative flow cytometry (QuantiBRITE PE), SW620_Luc cells
[20] = target: human P-cadherin, cell surface expressed (human) (UniProt P22223); assay: flow cytometry, PE-labeled mAb, H1975_Luc cells
[21] = target: human P-cadherin, cell surface expressed (human) (UniProt P22223); assay: flow cytometry, PE-labeled mAb, H322_Luc cells
[22] = target: human P-cadherin, cell surface expressed (human) (UniProt P22223); assay: quantitative flow cytometry (QuantiBRITE PE), Colo205_Luc cells
[23] = target: human P-cadherin, cell surface expressed (human) (UniProt P22223); assay: flow cytometry, PE-labeled mAb, LoVo_Luc cells
[24] = target: human P-cadherin, cell surface expressed (human) (UniProt P22223); assay: quantitative flow cytometry (QuantiBRITE PE), Ls174T_Luc cells
[25] = target: human P-cadherin, cell surface expressed (human) (UniProt P22223); assay: quantitative flow cytometry (QuantiBRITE PE), LoVo_Luc cells
[26] = target: human P-cadherin, cell surface expressed (human) (UniProt P22223); assay: flow cytometry, PE-labeled mAb, H1650_Luc cells
[27] = target: human P-cadherin, cell surface expressed (human) (UniProt P22223); assay: quantitative flow cytometry (QuantiBRITE PE), HT29_Luc cells
[28] = target: human P-cadherin, cell surface expressed (human) (UniProt P22223); assay: quantitative flow cytometry (QuantiBRITE PE), H1650_Luc cells
[29] = target: human P-cadherin, cell surface expressed (human) (UniProt P22223); assay: quantitative flow cytometry (QuantiBRITE PE), HCT116_Luc cells
[30] = target: human P-cadherin, cell surface expressed (human) (UniProt P22223); assay: flow cytometry, PE-labeled mAb, SUM149_Luc cells
[31] = target: human P-cadherin, cell surface expressed (human) (UniProt P22223); assay: flow cytometry, PE-labeled mAb, SW480_Luc cells
[32] = target: human P-cadherin, cell surface expressed (human) (UniProt P22223); assay: quantitative flow cytometry (QuantiBRITE PE), Ls174T cells
[33] = target: human P-cadherin, cell surface expressed (human) (UniProt P22223); assay: flow cytometry, PE-labeled mAb, SW620_Luc cells
[34] = target: human P-cadherin, cell surface expressed (human) (UniProt P22223); assay: flow cytometry, PE-labeled mAb, Ls174T_Luc cells
[35] = target: human P-cadherin, cell surface expressed (human) (UniProt P22223); assay: quantitative flow cytometry (QuantiBRITE PE), BT20_Luc cells
[36] = target: human P-cadherin, cell surface expressed (human) (UniProt P22223); assay: flow cytometry, PE-labeled mAb, HCT116 cells
[37] = target: human P-cadherin, cell surface expressed (human) (UniProt P22223); assay: flow cytometry, PE-labeled mAb, HT29_Luc cells
[38] = target: human P-cadherin, cell surface expressed (human) (UniProt P22223); assay: flow cytometry, PE-labeled mAb, Ls174T cells
[39] = target: human P-cadherin, cell surface expressed (human) (UniProt P22223); assay: quantitative flow cytometry (QuantiBRITE PE), SW480 cells
[40] = target: human P-cadherin, cell surface expressed (human) (UniProt P22223); assay: quantitative flow cytometry (QuantiBRITE PE), SUM149 cells
[41] = target: human P-cadherin, cell surface expressed (human) (UniProt P22223); assay: flow cytometry, PE-labeled mAb, SUM149 cells
[42] = target: human P-cadherin, cell surface expressed (human) (UniProt P22223); assay: flow cytometry, PE-labeled mAb, SW480 cells
[43] = target: human P-cadherin, cell surface expressed (human) (UniProt P22223); assay: quantitative flow cytometry (QuantiBRITE PE), SUM149_Luc cells
[44] = target: human P-cadherin, cell surface expressed (human) (UniProt P22223); assay: flow cytometry, PE-labeled mAb, HCT116_Luc cells
[45] = target: human P-cadherin, cell surface expressed (human) (UniProt P22223); assay: quantitative flow cytometry (QuantiBRITE PE), SW480_Luc cells
[46] = target: human P-cadherin, cell surface expressed (human) (UniProt P22223); assay: flow cytometry, PE-labeled mAb, SW620 cells
[47] = target: human P-cadherin, cell surface expressed (human) (UniProt P22223); assay: flow cytometry, PE-labeled mAb, BT20_Luc cells
[48] = target: human P-cadherin, cell surface expressed (human) (UniProt P22223); assay: flow cytometry, PE-labeled mAb, Colo205_Luc cells
[49] = target: human P-cadherin, cell surface expressed (human) (UniProt P22223); assay: quantitative flow cytometry (QuantiBRITE PE), SW620 cells
[50] = target: human P-cadherin, cell surface expressed (human) (UniProt P22223); assay: quantitative flow cytometry (QuantiBRITE PE), H1975_Luc cells
[51] = target: human P-cadherin, cell surface expressed (human) (UniProt P22223); assay: quantitative flow cytometry (QuantiBRITE PE), HCT116 cells
[52] = target: human P-cadherin expressed on the cell surface (human) (UniProt P22223); assay: cell ELISA, H1650 cells
human P-cadherin expressed on the cell surface (human), sequence (P22223 108-829): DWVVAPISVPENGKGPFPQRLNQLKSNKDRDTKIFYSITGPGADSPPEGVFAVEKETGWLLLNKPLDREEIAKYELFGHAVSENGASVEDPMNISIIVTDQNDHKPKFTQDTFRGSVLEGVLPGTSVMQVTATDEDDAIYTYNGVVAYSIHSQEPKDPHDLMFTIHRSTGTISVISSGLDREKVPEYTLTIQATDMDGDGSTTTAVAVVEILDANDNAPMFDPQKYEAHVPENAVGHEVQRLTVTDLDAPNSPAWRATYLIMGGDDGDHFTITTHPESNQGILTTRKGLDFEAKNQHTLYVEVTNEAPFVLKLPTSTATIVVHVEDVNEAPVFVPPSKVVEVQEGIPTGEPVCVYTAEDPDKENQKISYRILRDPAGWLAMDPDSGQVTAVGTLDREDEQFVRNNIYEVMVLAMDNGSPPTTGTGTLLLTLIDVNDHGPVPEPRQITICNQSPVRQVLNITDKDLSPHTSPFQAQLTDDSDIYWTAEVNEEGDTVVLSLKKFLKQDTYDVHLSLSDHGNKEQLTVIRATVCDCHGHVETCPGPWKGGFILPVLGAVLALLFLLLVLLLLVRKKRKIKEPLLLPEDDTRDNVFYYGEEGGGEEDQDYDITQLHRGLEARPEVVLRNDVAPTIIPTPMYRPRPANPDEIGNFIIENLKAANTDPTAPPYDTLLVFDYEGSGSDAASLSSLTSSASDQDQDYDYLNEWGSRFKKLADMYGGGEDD

[53] = target: human P-cadherin expressed on the cell surface (human) (UniProt P22223); assay: cell ELISA, CHO-huPcad cells
huP-cad-ECD (human) = huP-cad-ECD (human) (UniProt P22223); assay: ELISA, recombinant protein
huP-cad-ECD (human), sequence (P22223 108-654): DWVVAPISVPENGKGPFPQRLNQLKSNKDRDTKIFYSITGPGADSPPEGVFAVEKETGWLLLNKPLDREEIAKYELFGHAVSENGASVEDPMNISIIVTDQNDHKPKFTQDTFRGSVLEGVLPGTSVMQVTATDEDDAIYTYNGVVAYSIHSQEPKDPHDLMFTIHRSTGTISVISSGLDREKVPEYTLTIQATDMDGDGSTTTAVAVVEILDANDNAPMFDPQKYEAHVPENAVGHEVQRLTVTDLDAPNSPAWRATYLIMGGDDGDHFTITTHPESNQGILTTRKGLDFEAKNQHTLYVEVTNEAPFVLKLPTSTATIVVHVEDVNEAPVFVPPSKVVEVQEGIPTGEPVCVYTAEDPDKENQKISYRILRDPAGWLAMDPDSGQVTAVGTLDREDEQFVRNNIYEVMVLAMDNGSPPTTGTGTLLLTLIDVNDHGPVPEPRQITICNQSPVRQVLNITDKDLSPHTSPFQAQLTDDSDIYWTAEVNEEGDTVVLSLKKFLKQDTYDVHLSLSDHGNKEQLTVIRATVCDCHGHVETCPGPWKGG

[54] = target: huP-cad-ECD biotinylated (human) (UniProt P22223); assay: ELISA, recombinant protein
huP-cad-ECD biotinylated (human), sequence (P22223 108-654): as above

muP-cad-ECD (murine) = muP-cad-ECD (murine) (UniProt P10287); assay: ELISA, recombinant protein
muP-cad-ECD (murine), sequence (P10287 100-647): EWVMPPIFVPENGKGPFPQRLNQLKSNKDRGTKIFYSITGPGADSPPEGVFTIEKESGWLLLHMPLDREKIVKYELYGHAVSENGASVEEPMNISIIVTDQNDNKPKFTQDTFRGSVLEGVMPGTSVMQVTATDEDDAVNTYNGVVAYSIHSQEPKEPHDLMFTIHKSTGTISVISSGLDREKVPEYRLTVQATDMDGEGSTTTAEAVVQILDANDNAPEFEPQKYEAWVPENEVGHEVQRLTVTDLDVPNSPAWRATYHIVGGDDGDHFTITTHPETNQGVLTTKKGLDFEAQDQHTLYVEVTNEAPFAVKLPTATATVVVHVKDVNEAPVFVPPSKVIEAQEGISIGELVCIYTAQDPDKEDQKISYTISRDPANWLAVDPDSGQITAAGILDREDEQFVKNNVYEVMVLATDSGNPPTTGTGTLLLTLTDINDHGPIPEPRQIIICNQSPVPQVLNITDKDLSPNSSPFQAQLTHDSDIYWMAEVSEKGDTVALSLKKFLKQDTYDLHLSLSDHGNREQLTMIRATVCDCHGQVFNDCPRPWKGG

[55] = target: human P-cadherin expressed on the cell surface (human) (UniProt P22223); assay: cell ELISA, SW480-huPcad cells

human P-cadherin, cell surface expressed (human), sequence (P22223 108-829): as the sequence (P22223 108-829) above

MFI [1]: 373
MFI [2]: 242
MFI [3]: 151
MFI [4]: 88
MFI [5]: 94
MFI [6]: 282
MFI [7]: 222
MFI [8]: 68
MFI [9]: 213
MFI [10]: 254
MFI [11]: 171
MFI [12]: 175
MFI [13]: 125
MFI [14]: 229
MFI [15]: 239
MFI [16]: 225
MFI [17]: 173
Substance: control mouse IgG1 mAb (Biolegend), PE conjugated (antibody)

ABC (antibodies bound per cell) (antibodies bound per cell) [18]: 16600
ABC (antibodies bound per cell) (antibodies bound per cell) [19]: 715
MFI [20]: 3160
MFI [21]: 3230
ABC (antibodies bound per cell) (antibodies bound per cell) [22]: 874
MFI [23]: 1390
ABC (antibodies bound per cell) (antibodies bound per cell) [24]: 929
ABC (antibodies bound per cell) (antibodies bound per cell) [25]: 5800
MFI [26]: 7960
ABC (antibodies bound per cell) (antibodies bound per cell) [27]: 2420
ABC (antibodies bound per cell) (antibodies bound per cell) [28]: 37600
ABC (antibodies bound per cell) (antibodies bound per cell) [29]: 26400
MFI [30]: 3720
MFI [31]: 1260
ABC (antibodies bound per cell) (antibodies bound per cell) [32]: 4160
MFI [33]: 276
MFI [34]: 290
ABC (antibodies bound per cell) (antibodies bound per cell) [35]: 24300
MFI [36]: 8030
MFI [37]: 787
MFI [38]: 986
ABC (antibodies bound per cell) (antibodies bound per cell) [39]: 12700
ABC (antibodies bound per cell) (antibodies bound per cell) [40]: 15400
MFI [41]: 2870
MFI [42]: 2470
ABC (antibodies bound per cell) (antibodies bound per cell) [43]: 17000
MFI [44]: 5660
ABC (antibodies bound per cell) (antibodies bound per cell) [45]: 5300
MFI [46]: 297
MFI [47]: 5240
MFI [48]: 357
ABC (antibodies bound per cell) (antibodies bound per cell) [49]: 1120
ABC (antibodies bound per cell) (antibodies bound per cell) [50]: 15400
ABC (antibodies bound per cell) (antibodies bound per cell) [51]: 43800
Substance: anti-human P-cadherin mAb PF-03732010, phycoerythrin (PE) labeled (antibody)

EC50 [52]: 0.209 nM
EC50 [53]: 0.329 nM
EC50 (huP-cad-ECD (human)): 1.94 nM
EC50 [54]: 0.0188 nM
EC50 (muP-cad-ECD (murine)): 2.33 nM
EC50 [55]: 0.167 nM
Substance: anti-P-cadherin clinical mAb PF-03732010 (antibody)
